The text below walks through data of US20090054250.

Data set [1] relates to IgE immunoglobulin, P01854-1. Conditions: saturating IgE.
Data set [2] relates to IgE immunoglobulin, P01854-1. The note with it: n at position 18 is 2-aminopurine replacing C [18 (2-aminopurine replacing C)]; PAGE purified, saturating IgE; affinity stated comparable to unmodified aptamer; screening buffer 20 mM Tris pH 7.1, 140 mM NaCl, 5 mM KCl, 10 mM CaCl2, 10 mM ….

Like-named read-outs stand apart in the source and are kept apart here.

Sequence of IgE immunoglobulin, P01854-1 (P01854 other isoform, or with tags, fused parts or gaps): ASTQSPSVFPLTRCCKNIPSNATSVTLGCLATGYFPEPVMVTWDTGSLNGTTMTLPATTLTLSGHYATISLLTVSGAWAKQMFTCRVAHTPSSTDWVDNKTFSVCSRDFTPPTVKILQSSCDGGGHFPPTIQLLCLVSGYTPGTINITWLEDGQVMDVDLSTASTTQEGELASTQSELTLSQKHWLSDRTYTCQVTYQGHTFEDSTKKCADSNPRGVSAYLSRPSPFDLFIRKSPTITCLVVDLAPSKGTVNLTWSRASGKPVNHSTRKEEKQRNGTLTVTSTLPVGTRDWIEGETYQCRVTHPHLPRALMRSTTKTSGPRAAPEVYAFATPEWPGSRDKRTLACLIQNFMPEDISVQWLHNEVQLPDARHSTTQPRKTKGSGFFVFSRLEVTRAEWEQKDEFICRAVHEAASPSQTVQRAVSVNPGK

As to “GGGGCACGTTTATCCGTCCCTCCTAGTGGCGTGCCCC [IgE aptamer 3MI-18]”, the binding signal (fold fluorescence increase) in data set [1] (n at position 18 is 3-methylisoxanthopterin replacing C [18 (3-methylisoxanthopterin replacing C)]) turned out to be 1.5.
In data set [1] (n at position 18 is 6MAP replacing C [18 (6MAP replacing C)]), “GGGGCACGTTTATCCGTCCCTCCTAGTGGCGTGCCCC [IgE aptamer 6MAP-18]” displayed a binding signal (fold fluorescence increase) of 1.9.
In turn, “GGGGCACGTTTATCCGTCCCTCCTAGTGGCGTGCCCC [IgE aptamer 2AP-18]” registered a binding signal (fold fluorescence increase) in data set [2] of 5.6.
